Substitutions are numbered along the chain they refer to. Numbers in names are those of the source.
B1: Aspartate/asparagine-β-hydroxylase (AspH) (Homo sapiens; H679A) (protein)
chain: RKTDDPEQKAKVKKKKPKLLNKFDKTIKAELDAAEKLRKRGKIEEAVNAFKELVRKYPQSPRARYGKAQCEDDLAEKRRSNEVLRGAIETYQEVASLPDVPADLLKLSLKRRSDRQQFLGHMRGSLLTLQRLVQLFPNDTSLKNDLGVGYLLIGDNDNAKKVYEEVLSVTPNDGFAKVHYGFILKAQNKIAESIPYLKEGIESGDPGTDDGRFYFHLGDAMQRVGNKEAYKWYELGHKRGHFASVWQRSLYNVNGLKAQPWWTPKETGYTELVKSLERNWKLIRDEGLAVMDKAKGLFLPEDENLREKGDWSQFTLWQQGRRNENACKGAPKTCTLLEKFPETTGCRRGQIKYSIMHPGTHVWPATGPTNCRLRMHLGLVIPKEGCKIRCANETKTWEEGKVLIFDDSFEHEVWQDASSFRLIFIVDVWHPELTPQQRRSLPAI
B2: Aspartate/asparagine-β-hydroxylase (AspH) (Homo sapiens; H725A) (protein)
chain: B1 chain with A365H, H411A
B3: Aspartate/asparagine-β-hydroxylase (AspH) (Homo sapiens) (protein)
chain: B1 chain with A365H

Substrate: O=C(O)CCC(=O)C(=O)O
Experiment: purified protein
Details: Fe(II) active site Fe(II)

Protein	Km	kcat	kcat/Km
B1	109 ± 20 µM	0.18 s⁻¹	1700 M⁻¹ s⁻¹
B2	211 ± 65 µM	0.08 s⁻¹	380 M⁻¹ s⁻¹
B3	1.1 ± 0.4 µM	0.31 s⁻¹	282000 M⁻¹ s⁻¹
